Data published in patent publication US20240093191A1, “COMPOSITIONS AND METHODS FOR TREATING DISEASE ASSOCIATED WITH DUX4 OVEREXPRESSION” (RESEARCH INSTITUTE AT NATIONWIDE CHILDREN'S HOSPITAL, priority 2021, published 2024).

Experiments:
[1] = test system: DUX4 ORF (RenLuc-DUX4 ORF); test: Dual-luciferase assay, RenLuc-DUX4 ORF reporter co-transfected with miDUX4 plasmids in HEK293 cells; type: cell-based, human; settings: for reduction of Renilla luciferase activity: normalized to U6.miGFP
Procedure, shortened: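 HEK293 cells were co-transfected by lipofection with a psiCheck2 reporter carrying the DUX4 ORF as the Renilla luciferase 3′UTR and U6-driven miDUX4 plasmids, at increasing reporter:miRNA molar ratios. Renilla/Firefly ratio was read 24 h or 48 h post-transfection, with Firefly as transfection normaliser. Values are means ± SEM of triplicates over 3 experiments.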

[2] = test system: DUX4-induced muscle toxicity; test: mi405 constructs (scAAV6) co-injected with AAV.CMV.DUX4-FL in mouse TA, H&E; type: in vivo, mouse (C57BL/6); settings: scAAV6, 5e09 DRP co-injected with 5e09 DRP AAV.CMV.DUX4-FL, 8 weeks
Protocol: AAV Vector Delivery to Mice. (See also FIGS. 15A-B and 32A-B.) For determining bioactivity, 6- to 9-week-old C57BL/6 male and female mice received direct 35 μL IM injections into the TA. Mice received adeno-associated virus scAAV6.CMV.DUX4-FL at 5×10^9 DNase-resistant particles (DRP) co-injected with scAAV6.CMV.eGFP at 1×10^10 DRP, and a contralateral co-injection of scAAV6.CMV.DUX4-FL at 1×10^9 DRP or 5×10^9 DRP and scAAV6.U6.mir-675 at 5×10^10 DRP. To test toxicity of mir-675, the tibialis anterior (TA) was intramuscularly injected with increasing doses of scAAV6.U6.mir-675 at 5×10^10 DRP and 1×10^11 DRP, and injected contralateral TA with saline. To test mi405 toxicity, the TA was intramuscularly injected with 5×10^8 DRP, 5×10^9 DRP and 5×10^10 DRP of scAAV6.U6.mi405F, scAAV6.U6.mi405G or scAAV6.U6.mi405H and injected contralateral TA with saline. To test mi405 inhibition efficiency, the TA was co-injected with scAAV6.CMV.DUX4-FL at 5×10^9 DRP and scAAV6.U6.mi405F, G or H at 5×10^8 DRP, 5×10^9 DRP or 5×10^10 DRP. For this, a contralateral injection of either scAAV6.U6.mi405F, G or H or of scAAV6.CMV.DUX4-FL at 5×10^9 DRP was carried out. For mi405, all injections were compared to scAAV6.U6.mi405. Muscles were harvested at 2, 4 or 8 weeks post-injection. All animal studies were performed according to the NIH Guide for the Care and Use of Laboratory Animals.
Histology. (See also FIGS. 15A-B and 32A-B.) Dissected TA muscles were placed in O.C.T. Compound (Tissue-Tek) and frozen on liquid nitrogen-cooled isopentane. Cryosections were cut at 10 μm and then stained with H&E following standard protocols [Harper et al., Nat Med (2002) 8(3):253-61].
U6.mi405, U6.mi405F, U6.mi405G and U6.mi405H were co-injected using scAAV6 with AAV.CMV.DUX4-FL at equivalent doses (5e09 DNase Resistant Particles (DRP)) in the TA of C57BL/6 mice. This experiment was performed to investigate the efficiency of the four mi405 constructs to eliminate DUX4-induced muscle toxicity in vivo at doses equivalent to that of AAV.CMV.DUX4-FL. Previously, Wallace et al. [Wallace et al, Ann. Neurol. […]

[3] = DUX4:mi405 molar ratio 2 to 1, HEK293, 24 h
[4] = DUX4:mi405 molar ratio 12 to 1, HEK293, 24 h

B1: U6.mi405F: mi405 with one G at 5' end and 16 mer 3' flanking sequence with single CNNC motif (nucleic acid)
DNA: ACGCCGCCATCTCTAGGCCCGCGCCGGCCCCCTCGCACAGACTTGTGGGAGAAGCTCGGCTACTCCCCTGCCCCGGTTAATTTGCATATAATATTTCCTAGTAACTATAGAGGCTTAATGTGCGATAAAAGACAGATAATCTGTTCTTTTTAATACTAGCTACATTTTACATGATAGGCTTGGATTTCTATAAGAGATACAAATACTAAATTATTATTTTAAAAAACAGCACAAAAGGAAACTCACCCTAACTGTAAAGTAATTGTGTGTTTTGAGACTATAAATATCCCTTGGAGAAAAGCCTTGTTTGCTCGAGTGAGCGATCCAGGATTCAGATCTGGTTTCTGTAAAGCCACAGATGGGAAACCAGATCTGAATCCTGGACTGCCTACTAGTAATTCTTCGATTCTGCTTTTTT
- reduction of relative Renilla luciferase activity ([1]; 1:4 DUX4:mi405 molar ratio, HEK293, 24 h, normalized to miGFP): 89±1%
- reduction of Renilla luciferase activity [1, 3]: 77±1%
- decrease of relative Renilla luciferase activity compared to U6.mi405 ([1]; DUX4:mi405 molar ratio 8:1, 24 h): 48±6%
- reduction of Renilla luciferase activity [1, 4]: 45±4%
- decrease of relative Renilla luciferase activity compared to U6.mi405 ([1]; DUX4:miDUX4 molar ratio 1:1): 33±2%
- decrease of relative Renilla luciferase activity compared to U6.mi405 ([1]; DUX4:miDUX4 molar ratio 1:2): 32±2%
- decrease of relative Renilla luciferase activity compared to U6.mi405 ([1]; DUX4:miDUX4 molar ratio 1:3): 34±1%
- decrease of relative Renilla luciferase activity compared to U6.mi405 ([1]; DUX4:miDUX4 molar ratio 1:4): 32±1%
- relative Renilla luciferase activity reached ([1]; DUX4:miDUX4 molar ratio 8:1): 38±2%
- more efficient than U6.mi405 in reducing relative Renilla luciferase activity ([1]; DUX4:miDUX4 molar ratio 40:1): 13±2%
- efficiency in eliminating DUX4-induced muscle toxicity compared to mi405 [2]: no enhanced inhibition efficiency in vivo when compared to mi405

B2: U6.mi405G: mi405 construct with altered flanking sequences (nucleic acid)
DNA: ACGCCGCCATCTCTAGGCCCGCGCCGGCCCCCTCGCACAGACTTGTGGGAGAAGCTCGGCTACTCCCCTGCCCCGGTTAATTTGCATATAATATTTCCTAGTAACTATAGAGGCTTAATGTGCGATAAAAGACAGATAATCTGTTCTTTTTAATACTAGCTACATTTTACATGATAGGCTTGGATTTCTATAAGAGATACAAATACTAAATTATTATTTTAAAAAACAGCACAAAAGGAAACTCACCCTAACTGTAAAGTAATTGTGTGTTTTGAGACTATAAATATCCCTTGGAGAAAAGCCTTGTTTGACCGTTTAAACTCGAGTGAGCGATCCAGGATTCAGATCTGGTTTCTGTAAAGCCACAGATGGGAAACCAGATCTGAATCCTGGACTGCCTACTAGAGAATTCTTCGATTCTGCTTTTTT
- reduction of Renilla luciferase activity [1, 3]: 81±1%
- additional reduction of Renilla luciferase activity compared to U6.mi405F ([1]; DUX4:mi405 molar ratio 12 to 1): 26±5%
- reduction of Renilla luciferase activity [1, 4]: 59±2%
- efficiency in eliminating DUX4-induced muscle toxicity compared to mi405 [2]: more efficient than mi405

B3: U6.mi405H: mi405 construct with altered flanking sequences (nucleic acid)
DNA: ACGCCGCCATCTCTAGGCCCGCGCCGGCCCCCTCGCACAGACTTGTGGGAGAAGCTCGGCTACTCCCCTGCCCCGGTTAATTTGCATATAATATTTCCTAGTAACTATAGAGGCTTAATGTGCGATAAAAGACAGATAATCTGTTCTTTTTAATACTAGCTACATTTTACATGATAGGCTTGGATTTCTATAAGAGATACAAATACTAAATTATTATTTTAAAAAACAGCACAAAAGGAAACTCACCCTAACTGTAAAGTAATTGTGTGTTTTGAGACTATAAATATCCCTTGGAGAAAAGCCTTGTTTGACCGTTTAAACTCGAGTGAGCGATCCAGGATTCAGATCTGGTTTCTGTAAAGCCACAGATGGGAAACCAGATCTGAATCCTGGACTGCCTACTAGAGCGCACGCCAGTTTTTT
- reduction of Renilla luciferase activity [1, 3]: 80±1%
- additional reduction of Renilla luciferase activity compared to U6.mi405F ([1]; DUX4:mi405 molar ratio 12 to 1): 25±6%
- reduction of Renilla luciferase activity [1, 4]: 58±2%
- efficiency in eliminating DUX4-induced muscle toxicity compared to mi405 [2]: more efficient than mi405
